This note sets out measurements from a protein production outcome set (Wang et al. 2014).

The data set can be described thus: label from the status in PepcDB records.
Take “MRLNHNSYEIFDFMRSRSAIGVLSKIIITIPPINLRMIIGVMGPEGSYSERAAKLWARKNGLRGAEFHYFADIEDAFLAAVGGKTDISVVPVENSIEGSVGVTLDLLLENEAVIIGEIVVKIEHCLLSKGEPEKIRVILSHPQGLAQCRHFLKTHFPEAELRSTGSTSHAARLAGEFEEMAAIASPEAAERYGLKILLSNVQDRKENHTRFIVVRGGEKVLSGKIKGKADSGEKLNTVFGRNAEHKLCSETETGTENSSSYAFKTSLIVYLEKDRPGALYEPLGFFAKRGINLTKIESRPSKKELGDYYFYIDLEGNISDVLIKDALEDIKSKASKKSRSSTLKVLGSYPAFKK”: the protein production result was “failed”.

With “MRLQELVLVKISLVFLWLIGFVFLQRSEENGFEEPNNGEELSWDDLEREAASNISSKRSHAERSHQHESFTKGDELSGDLYELWRQEQNSIAARLDKELKSRWELDELIEEQLSRYQSHYDNSMVSTFLKDVSNLVLPTWIPPHELAAVAWLGDWRPTSILDLVRILAAQNPSFSLSESSLRVLSQLLREIRIEEAVIDEEYAEIQATGVLYLPFSPLCNTRLHEEALRSVQELFGNIHKVISKAQRLRYKVLELVMKKLLNQTDTAEFVVAFAGIQDAIHQFGEQKKLRKIYPAVPSPLKGSGSSS”, the protein production entry is recorded as “not failed”.

For “MRLSISLGESPCISSLKVRGFTASPQTPNLSISVIVTAFNRREYLRYALLSLKNQEADSFEVVVSKNFSDRVTDKFCSENGFINVTTDSSRSGERVYDALRSSHGDFILFLDDDDIFRRTKISRVSDVISKRNVAFYRNAIFPVTVDGVIATHYQPQMHDPLYLILERVSDVRLLHRHACDFNSSSMGISRSMLDSHASDLRKINLAVDTFYFALAASSRMPLFCDSMIESIYRIMPSSTSRDLRDFYLFSRFERSFLRRYVPDLERIAEIVEGSPAKPVIGRMLSLYKILQYVFEEDRVNLKPSPLDRVRFLLERPFPYSLLYSRIFRDAAMRSEFRRENRIVYGNADRRRRLEHHHHHH”, the protein production entry is recorded as “not failed”.

Take “MRLVEIGRFGAPYALKGGLRFRGEPVVLHLERVYVEGHGWRAIEDLYRVGEELVVHLAGVTDRTLAEALVGLRVYAEVADLPPLEEGRYYYFALIGLPVYVEGRQVGEVVDILDAGAQDVLIIRGVGERLRDRAERLVPLQAPYVRVEEGSIHVDPIPGLFD”: the protein production result is on record as “not failed”.

For “MRLVIHGKNIDITDGIRSYLNQKIERATSHFQNVINEVDVHLSVARNRSTAPKQTAEVTVFVNGSVIRAEESSENLYASIDLVADKIARKLRKLKEKRQDKSRAKDTNSVVEPEVVTDLVGDRTPQLPEQVVRMKYFAMPPMTIQEALEHLEMVDHDFYVFRNRDTGEINVVYERNHGGYGVIQPRPTSNNHHHNTADAAAKATAKAGPLEHHHHHH”, the protein production entry is reported as “not failed”.

As for “MRMNMKKISLSLLTLGVLSGLSINASALPADFPVMPAATAPVSQYVTAVNADSSITFRLFAPTAKQVSVFTGSTPDSIVSHAMTKDEAGVWSFKTPVQAPNLYEYFFSVDGFRTIDTGTAFTKPQRQVNTSLILVPGSILDVRQIPHGELRTLTYHSNALKSERQMYVWTPPGYSESSKPLPVLYFYHGFGDTGASAVVQGRIPQMMDNLLAEKKIEPMLVVIPDTETDVPGIIPEEYPPQERRKVFYPRNALAADRELIHDIIPAIGKRFNVRQDANGRALAGLSQGGYQALVSGMSHLDHFGWLATFSGVTTETVPNMAVAAQLERPEQINQQLKNLTVVIGETDNITGKDIAGLKTMLEQKNIRFDYTHYPNLGHEMDVWRPAYSEFVQKLFK”, the protein production entry is on record as “failed”.

For the sequence “MRNDLFNREKSRQLSLTPRTEKIEVKHVGKTDPGTVFVMNKNISTPYSCAMHLSEWYCSKSILALVDGQPWDMYKPLTKSCEIKFLTFKDPDPREVNKAYWRSCAMMLGCVIERAFKDDYVVSLLRAPEVPVIAGAFCYDVTLDKRLDEWMPTKENLRSFTKDAHALIYRDLPFETLDVDARVALEIFQHNKYKVDFIEEKASQNPERIVKLHRIGDFIDVSEGPLIPRTSVCFQYEVSAVHNLNPSQPNLIRRFQGLSLPTHLRAQFTIWDKLVGRSRKMVTEDEVRQTENTESTQ”, the protein production entry is given as “failed”.

For “MRNGRLLEACDDIPEEDIPSRRYEASMCYLRGLCYAKQNAFDRAKEAYKDALRIDVQCFEAFSQLVKNSLMSPDEEDEFMQSLAFDSIRAPGDDPDMEDEPADYVHMLYQTQLSKYRNPQAFNTAIESLSTHYGLENNADILLAKADLLYTQCRFKDALAITESILMDDKYNFAVYPIHLACLYELRKTNVLFLIAHELADTHPDEPCTWLAVGIYYFTTGKIADARRYFSKASMMDANFGPAWIGFAHTFAAEGEHDQAVTAYSTAARLFTGTHLPQVFLGMQNHAMNNMTAAEEFLKTAYSLCKTDPLLLNEMGIVLYHQDRLKEAVKMFDQVMAFGTAEMSRASEKRRMETMLSKLLQSLRPSTTSAIFSRRSTILPL”, the protein production result is “failed”.

As to “MRNHKQSDRVLNLPAGYFGIVLGTIGMGFAWRYASQIWGISHWPGDIMVILAMIIWALLTLAFLSRLVRFPHSVMAEVRHPVMSSFVSLFPATTMLVAIGFVPWYRPLAVALFSVGVVIQLAYAAWQTAGLWRGAHPEEATTPGLYLPTVANNFISAMACGALGYNDAGLVFLGAGVFSWLSLEPVILQRLRSCGELPAVLRTSLGIQLAPALVACSAWLSVNGGEGDTLAKMLFGYGLLQLLFMLRLMPWYLSQPFNASFWSFSFGVSALATTGLHLGHGSESGLFHILAVPLFIFTNAIIALLLVRTFLLLVQGTLLIRTERAALLKTEEKNDRS”, the protein production result is recorded as “failed”.

In the case of “MRNKKLIPFEVIEKAVAGEPEAIELVLQHYSPRIKYLSKYRGYINDDIQDRLKTQLIKAILQFRFDR”, the protein production entry is “failed”.

In the case of “MRNMNIYDSLLGAVHSEYDVLMLIKKSERGEVSLVRHRDSGTRYIFRHFYGNSEVYQKLLNVSCPNLPQIMEVGEKDGKTALLEEYVQGDTLSEILEGGLLTIAESKQIARQLCSALWVFHSMGVVHRDVKPDNVIIRGKEAVLIDFDASRIYKSTIQEDTQILGTTGFAAPEQYGLSQSDGRADIYALGVLLNIMLTGEHPSRKLAGGRMGRIVQRCTMVNPSKRYKNILHLLEVL”, the protein production result is reported as “failed”.

As for “MRNPHSNGNLRKLEADGGGEATEENGFVNGVILGLDGGATSTVCVCVPFFSFGERFPDPLPILGRAVAGCTNRNSVGETAARDSLEQVISEALVQSGFDKSDVRGVCLGVSGVNHPSDQEKIENWIRDMFPSHVKVYVQNDAIVALASGTMGKLHGCVLIAGTGCIAYGFDEDGKEARASGGGPILGDWGSGYGIAAQALTAVIRAHDGRGPQTMLTSTILKALGLSSPDELIGWTYADPSWARIAALVPQVVSCAEAGDEISDKILVDAAEDLALSVKAVVQRLGLCGKDGTASFPVVMVGGVLNANQKWDIGKEVSKRINRYFPGAQTIIPKVEPAVGAALLAMNFLSS”, the protein production entry is “failed”.

Consider “MRNPSEDHMMRTPYQIVADHYAASDRHDPAAMMADIAPAIEWTEMAGFPCAGTYRSADEIVRNVFRRLGEEWDGYTFKLDALHDAGDTVIGVGRYSGTYRRTGKSFECRVAHVWRVDAGKIVHFEQFTDTLLVAQAMQP”, for which the protein production result is on record as “not failed”.

As for “MRNQFDLELHELEQSFLGLGQLVLETASKALLALASKDKEMAELIINKDHAINQGQSAIELTCARLLALQQPQVSDLRFVISIMSSCSDLERMGDHMAGIAKAVLQLKENQLAPDEEQLHQMGKLSLSMLADLLVAFPLHQASKAISIAQKDEQIDQYYYALSKEIIGLMKDQETSIPNGTQYLYIIGHLERFADYIANICERLVYLETGELVDLN”, the protein production result was “not failed”.

Turning to “MRNSMMTIYPHLIICPHCDSVHHYRALNPGEAARCTRCQATLYRSGWINTGHSLALIQTAAIVFFIANSYPVLTVSFHALQNTATLWQAALALANGATLPLAIGCFFILIMAPFLQIMLTGWVLMFANKDRCAPGFIPVMKILLWLRPWSMLEIATLGFLIAAIKLSGFMQVMPGAGCWALAALMLLLVVVNSIDLRPLWSLVPTDSNHSVVRHEK”, the protein production result is given as “failed”.

Regarding “MRNSNGGRDNRKSNRDQYRKPDYAGEMLFDDEEDYDDDADYDVVDDMKAHNDDYSDSAFGPDADNYDTDDDAWHDDVAAADDDPSDEDGYYDEEYDDTEDWQDMKDSKRKKKNRVWGIILALEIVTAIVIGVLFVKSYINNTYSKMQYNELKNTHINEDLNEESVKKMTGYTNIALFGIDTRDSGMVDDGVRSDSIIICSINNDTQEVKLLSVYRDTYLELCNDSQSYEKAAHAYAYGGAQGAVNMLNKNLDLNITDYVAVNFTALTEAIDALGGIDVELKEEELYKLNQCIDEQMGVNGIYSDYVYDTGVVHLNGVQATAYSRIRSTDEGDITRTWRQRTVISKMIEAAKSAGLSRLLDCINVVVDDVASSLTESEIMDMAKSCFNYKLSTTTGFPFTIASPTMNDVSYVVACDLATNATALHRFLFNDSNYTPSATVQNISDNIVNESGYGNQLDLDTFTVEDDVDSIVNTESDDY”, the protein production result is on record as “failed”.

For the sequence “MRNTFIVCWQYLRAFALIYLCLLAGNAVSALLPFTIPGSIIGMLVLFTLLASQILPAQWVKPGCYLLIRHMALLFVPIGVGVMNYYDLVNQQFGPIVVSCLISTFIVMLVVGFSTQIMQRERATAGDRTPPKDNE”, the protein production result is listed as “failed”.

With “MRPADRCRSPTGRPATGRHRPDIFTNTVEWDAFEAAPLYGDTTSSFVCQSRMTGEYFPKMGGHAMKNRLACTAVIAAIFCTTSASAQKLPEIWEVTKLVPGSAFHGVHGLGIDKAGHLFAGSVAGAMLYEVDIASGTAKVAIPAPIGMADDIAFAPDGTMAWTGFLAGDLYSRKGDGPIKKLASGLPGINSLAFRKDGRLYATTVFLGDTLYEIDVEGVKPPRQIMEKMGGLNGFEFGPDDKLYGPLWFKGQVAKVDVDKAELTVVADGFKVPAAVNFDSKGNLWVVDTALGQLVRVDPKSGAKTMVAQLKPSLDNLAIDEKDRIYVSNMADNGIQEVDPASGQAKQIIIGKLALPGGIGVTSENGKDTIHVADVFAYRTVDGTTGEVTEKARMHAAGVTLEYPMSATAKGNDVILSSWFTGTVQVIDNKTGATRDMLHDFKAPHDAIVLEDGSILVAELGTKSLVRVSGEHGKDRTTLIGDLEGPVGLVAGSRGEVYVTEAFAGVVSKIEQNGEKTVLVKELKMPEGLARTSDGKLIVAEVGARRLIEITPEDGKITEIAADLPIGLAGAPGGLPTHIPTGVAIGATGVIYFSSDIENAIYKAVKK”, the protein production entry was “failed”.

As for “MRPALTTVQVFALLAVALSTLVFAASFAVDTTSARPEPVAFDNTVQRGVTAADEQIARNRSISIPRAQVFYSQYRYVVGYVGIGQAVTALTEPGHEQQFGYPLAVYVSDYSDRPVRCGDDGSLRTATPPDWVEANQAHYVVDGSARVPSGPAVVPFADRDDAAAFTETCGGQIIDWETLKTYSFDLKQAAAVREQVGPRRSGADATVQAARQHRNRPVSVEVGTDAPTVQAAVDAAPPNTTVVVPAGTYNEQVMIDKPLSLSGPGATLDGGGNGTVVTVTADRVGVTGFEITGIGNTTVGDPTQSNDSAWDATVTTAYGNSDAAVTGRNASGLYVANITVETPASGVVLRRTPGAVVENVTVNGTADWQDGFMGVIGMHRPIVVQDSVFNGGRDGVYLHRADGTAVRNNAFRDNRFGVHLMYTSRSLVADNVARGQEYAGVVVMTNPVANAIVGNDVRHSGSGIMLAGSRSYIAHNVVVDTTQAMSTNADRSLYEHNVLYGNDIGVRASTVVPSNIVTDNDFIANDRHAISGPGPLRVYTHDGRGNYWSGAYDLTGGTGPVLAQSYSPTDSVDRRLHQTDAAVVLRAAPSVRGLRALRGTTPGFRRGSIVDRAPLADPANPETVRRLRNETSMEGAA”, the protein production result is “failed”.
